Our source for the response values is publication PMC11702068, “NEK8 promotes the progression of gastric cancer by reprogramming asparagine metabolism” (Molecular Medicine, 2025).

B1: Flag-ASNS (wild type) [not stated] / NEK8 (partner in the co-immunoprecipitation with ASNS-WT and ASNS-S349A) [not stated] (parent)
chain 1: MCGIWALFGSDDCLSVQCLSAMKIAHRGPDAFRFENVNGYTNCCFGFHRLAVVDPLFGMQPIRVKKYPYLWLCYNGEIYNHKKMQQHFEFEYQTKVDGEIILHLYDKGGIEQTICMLDGVFAFVLLDTANKKVFLGRDTYGVRPLFKAMTEDGFLAVCSEAKGLVTLKHSATPFLKVEPFLPGHYEVLDLKPNGKVASVEMVKYHHCRDVPLHALYDNVEKLFPGFEIETVKNNLRILFNNAVKKRLMTDRRIGCLLSGGLDSSLVAATLLKQLKEAQVQYPLQTFAIGMEDSPDLLAARKVADHIGSEHYEVLFNSEEGIQALDEVIFSLETYDITTVRASVGMYLISKYIRKNTDSVVIFSGEGSDELTQGYIYFHKAPSPEKAEEESERLLRELYLFDVLRADRTTAAHGLELRVPFLDHRFSSYYLSLPPEMRIPKNGIEKHLLRETFEDSNLIPKEILWRPKEAFSDGITSVKNSWFKILQEYVEHQVDDAMMANAAQKFPFNTPKTKEGYYYRQVFERHYPGRADWLSHYWMPKWINATDPSARTLTHYKSAVKA
chain 2: MEKYERIRVVGRGAFGIVHLCLRKADQKLVIIKQIPVEQMTKEERQAAQNECQVLKLLNHPNVIEYYENFLEDKALMIAMEYAPGGTLAEFIQKRCNSLLEEETILHFFVQILLALHHVHTHLILHRDLKTQNILLDKHRMVVKIGDFGISKILSSKSKAYTVVGTPCYISPELCEGKPYNQKSDIWALGCVLYELASLKRAFEAANLPALVLKIMSGTFAPISDRYSPELRQLVLSLLSLEPAQRPPLSHIMAQPLCIRALLNLHTDVGSVRMRRAEKSVAPSNTGSRTTSVRCRGIPRGPVRPAIPPPLSSVYAWGGGLGTPLRLPMLNTEVVQVAAGRTQKAGVTRSGRLILWEAPPLGAGGGSLLPGAVEQPQPQFISRFLEGQSGVTIKHVACGDFFTACLTDRGIIMTFGSGSNGCLGHGSLTDISQPTIVEALLGYEMVQVACGASHVLALSTERELFAWGRGDSGRLGLGTRESHSCPQQVPMPPGQEAQRVVCGIDSSMILTVPGQALACGSNRFNKLGLDHLSLGEEPVPHQQVEEALSFTLLGSAPLDQEPLLSIDLGTAHSAAVTASGDCYTFGSNQHGQLGTNTRRGSRAPCKVQGLEGIKMAMVACGDAFTVAIGAESEVYSWGKGARGRLGRRDEDAGLPRPVQLDETHPYTVTSVSCCHGNTLLAVRSVTDEPVPP

The variants in the first experiment derive from B1. Briefly: co-immunoprecipitation (IP: ASNS, IB: NEK8), band intensity quantified. The note with it: parent: 4.9, read off a plot.
For the variant chain 1 S349A, the response came to 3.1.

The next experiment covers variants of B1. The experiment is described as follows: co-immunoprecipitation (IP: Flag-ASNS, IB: NEK8), band intensity quantified. The note with it: parent: 5.4, read off a plot.
Consider chain 1 S349A, for which the response turned out to be 2.7.
